By stoichiometry N is commonly meant the number of molecules, sites or subunits per partner or assembly.

From publication PMC11067744 come the findings set out here.

The target in the assay is YenB (UniProt B6A880). In words: SEC-MALS.
Sequence of UniProt B6A880 (B6A880 whole entry): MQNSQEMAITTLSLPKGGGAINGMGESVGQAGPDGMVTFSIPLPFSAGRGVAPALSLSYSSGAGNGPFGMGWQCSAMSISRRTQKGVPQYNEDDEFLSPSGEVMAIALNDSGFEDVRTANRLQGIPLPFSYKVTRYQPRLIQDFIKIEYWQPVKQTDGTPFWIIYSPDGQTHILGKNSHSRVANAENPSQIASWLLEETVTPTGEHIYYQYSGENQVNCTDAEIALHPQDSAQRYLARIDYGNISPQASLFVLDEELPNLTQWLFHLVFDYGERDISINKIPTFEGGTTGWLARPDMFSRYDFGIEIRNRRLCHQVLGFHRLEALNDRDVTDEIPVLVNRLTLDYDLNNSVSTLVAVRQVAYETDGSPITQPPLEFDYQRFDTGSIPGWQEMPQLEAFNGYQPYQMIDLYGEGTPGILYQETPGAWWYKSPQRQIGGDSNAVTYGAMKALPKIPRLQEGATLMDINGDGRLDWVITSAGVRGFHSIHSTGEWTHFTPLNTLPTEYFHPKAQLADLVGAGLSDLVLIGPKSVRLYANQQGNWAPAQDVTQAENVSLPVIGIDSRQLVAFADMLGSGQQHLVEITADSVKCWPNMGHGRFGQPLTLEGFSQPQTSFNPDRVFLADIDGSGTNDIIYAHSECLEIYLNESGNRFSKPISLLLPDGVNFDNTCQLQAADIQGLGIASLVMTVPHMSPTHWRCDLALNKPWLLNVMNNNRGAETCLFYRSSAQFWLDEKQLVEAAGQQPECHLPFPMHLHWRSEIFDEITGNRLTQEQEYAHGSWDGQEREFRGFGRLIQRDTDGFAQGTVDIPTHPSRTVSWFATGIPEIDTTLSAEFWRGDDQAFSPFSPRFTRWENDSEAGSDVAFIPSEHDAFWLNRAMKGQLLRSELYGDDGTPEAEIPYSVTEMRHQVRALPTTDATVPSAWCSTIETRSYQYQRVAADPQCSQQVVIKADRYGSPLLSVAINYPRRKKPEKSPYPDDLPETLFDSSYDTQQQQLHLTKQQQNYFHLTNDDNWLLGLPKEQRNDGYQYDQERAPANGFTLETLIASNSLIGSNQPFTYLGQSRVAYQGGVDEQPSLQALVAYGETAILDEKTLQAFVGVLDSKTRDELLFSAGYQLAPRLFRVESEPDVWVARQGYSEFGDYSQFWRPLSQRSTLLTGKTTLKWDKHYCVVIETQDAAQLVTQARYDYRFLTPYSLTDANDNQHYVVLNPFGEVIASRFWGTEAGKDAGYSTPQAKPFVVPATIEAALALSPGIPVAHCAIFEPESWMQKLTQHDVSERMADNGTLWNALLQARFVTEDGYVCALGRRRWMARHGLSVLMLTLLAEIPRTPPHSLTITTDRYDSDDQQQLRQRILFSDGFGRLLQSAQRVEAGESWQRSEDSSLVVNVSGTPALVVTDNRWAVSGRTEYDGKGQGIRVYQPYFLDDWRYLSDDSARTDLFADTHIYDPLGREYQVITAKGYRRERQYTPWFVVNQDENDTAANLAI

On to YenC3^NTD (domain or fragment), for which the stoichiometry N turned out to be 1.
Regarding YenC3^CTD (domain or fragment), the stoichiometry N was determined as 1.
